Where no end group is shown, it is not given here.
How the values were obtained:
[1] = biological target: recombinant MAVS protein; assay: fluorescence-labeled peptide titrated on plate-coated recombinant MAVS (250 ng per well), fluorescence read-out
[2] = biological target: recombinant MAVS protein; assay: fluorescence-labeled peptide titrated on plate-coated recombinant MAVS; ratio of the Kd of MQP-37 to that of MQP-37A6

Chain of recombinant MAVS protein (Q7Z434 2-540): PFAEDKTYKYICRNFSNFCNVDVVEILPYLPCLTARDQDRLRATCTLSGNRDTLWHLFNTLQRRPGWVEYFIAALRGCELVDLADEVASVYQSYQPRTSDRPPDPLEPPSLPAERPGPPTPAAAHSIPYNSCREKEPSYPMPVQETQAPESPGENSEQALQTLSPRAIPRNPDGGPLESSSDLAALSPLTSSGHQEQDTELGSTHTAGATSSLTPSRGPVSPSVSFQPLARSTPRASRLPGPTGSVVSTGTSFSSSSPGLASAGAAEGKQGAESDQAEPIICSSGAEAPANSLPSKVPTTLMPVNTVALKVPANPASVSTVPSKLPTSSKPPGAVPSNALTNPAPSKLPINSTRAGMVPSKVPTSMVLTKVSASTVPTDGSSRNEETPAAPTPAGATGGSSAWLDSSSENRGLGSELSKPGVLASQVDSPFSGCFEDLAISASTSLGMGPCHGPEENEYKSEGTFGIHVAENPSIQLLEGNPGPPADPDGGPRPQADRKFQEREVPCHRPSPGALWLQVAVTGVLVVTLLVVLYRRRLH

Binder	Kd [1] [mM]	fold binding affinity against MQP-37 [2] [times]
SLVLADARW (also: fluorescence-labeled, label and position not given here) [fluorescence-labeled peptide MQP-37]	16	–
SLVLAAARW (also: fluorescence-labeled, label and position not given here) [fluorescence-labeled novel alanine-substituted peptide MQP-37A6]	0.75	20

— patent US20230203097A1
